# Test results taken from article PMC7985572, “Backbone chemical shift spectral assignments of SARS coronavirus-2 non-structural protein nsp9” (Biomolecular Nmr Assignments, 2021).
# Biological target: the molecule itself
# Experiment: SEC
protein,measurement,value
"SARS-CoV-2 non-structural protein 9 (nsp9) (natural protein, also called non-structural protein nsp9; sample A; not shown: His6, N-terminal, cleaved; GST, N-terminal, cleaved) GAMGNNELSPVALRQMSCAAGTTQTACTDDNALAYYNTTKGGRFVLALLSDLQDLKWARFPKSDGTGTIYTELEPPCRFVTDTPKGPKVKYLYFIKGLNNLNRGMVLGSLAATVRLQ",stoichiometry N,2
